In publication doi:10.1101/2020.05.06.071340:

What was measured:
[1] = molecular target: T1, TOC1-CCT (Arabidopsis, UniProt Q9LKL2 533-575); assay: EMSA
T1 chain: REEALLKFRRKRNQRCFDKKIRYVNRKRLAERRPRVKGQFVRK

[2] = molecular target: T1, TOC1-CCT; assay: ITC
[3] = molecular target: T2, CCTN (Arabidopsis, UniProt Q9LKL2 533-565); assay: NMR
T2 chain: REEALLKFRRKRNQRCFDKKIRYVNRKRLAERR

[4] = molecular target: T3, CCT (NMR construct) (Arabidopsis, UniProt Q9LKL2 533-590); assay: NMR
T3 sequence: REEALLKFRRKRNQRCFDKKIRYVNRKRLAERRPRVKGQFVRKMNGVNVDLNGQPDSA

B1: G-rich RNA probe (ssRNA)
RNA: AAAUAAAUGGAGGGGAAAAAUAAAU
[1]
  Kd: 110 ± 6 nM
[2]
  Kd: 124 ± 8 nM

B2: NMR RNA (ssRNA)
RNA: UGGAGGGGA
[3]
  binding result: binds
[4]
  binding result: binds
